Measurements as given in the nanobody polyreactivity screen of Harvey et al. (2022).

Test: yeast display, Sf9 membrane polyspecificity reagent, FACS + sequencing; frameworks hold sequencing errors
Procedure, shortened: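 Synthetic nanobody libraries on Saccharomyces cerevisiae BJ5465 were galactose-induced for 36–48 hours, stained 1 hour at 4 °C with 10% biotinylated, detergent-solubilized Sf9 membrane reagent and enriched on streptavidin microbeads. FACS then separated cells into low and high (top ~1%) gates by anti-HA (expression) and streptavidin (reagent binding) fluorescence. Genes were colony-PCR amplified, MiSeq 2 × 250 sequenced and CDR-length filtered. A clone's polyreactivity label is that of its gate of origin.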

| Sequence | polyreactivity (PSR sort gate) |
| --- | --- |
| QVQLVESGGGLVQAGGSLRLSCAASGSILGTNAMGWYRQAPGKESELVAAINYSGGNTYYADSVKGRFTISRDNAKNTVYLQMNSLKPEDTAVYYCAAVNGWRRVKRFDYWGQGTQVTVSS | high polyreactivity |
| QVQLVESGGGLVQAGGSLRLSCAASGSILGTYAMGWYRQAPGKVRELVAAISSSGRTSYADSVKGRFTISRDNAKNTGYLQMNSLKPEDTAVYYCNASNYIVLINDPYAAPWLYDYWGQGTQVTVSS | low polyreactivity |
| QVQLVESGGGLVQAGGSLRLSCAASGSILGVNVMGWYRQAPGKERELVAAISLSSSRTNYADSVKGRFTISRDNAKNTVYLQMNSLKPVDTAVYDCASAVRPGYARPYTSWGQGTQVTVSS | high polyreactivity |
| QVQLVESGGGLVQAGGSLRLSCAASGSILGVYTMGWYRQAPGKERELVAAITSSSSSTYADSVKGRFTISRDNAKNTVYLQMNSLKPEDTAVYYCATRGWSKQLYGGYTQYYYWGQGTQVTVSS | high polyreactivity |
| QVQLVESGGGLVQAGGSLRLSCAASGSILGYYAMGLYRQAPGKERELVAAISGRGGSTYYADSLKGRFTISRDNAKNTVYLQMNSLKPEDTAVYYCAKRSVWRGWGQGTQVTVSS | high polyreactivity |
| QVQLVESGGGLVQAGGSLRLSCAASGSILGYYAMGWYRQAPGKERELVAANTASGGSTYYADSVKGRFTISRDNAKNTVYLQMNSLKPEDTAVYYCAAQYYATYGYWGQGTQVTVSS | low polyreactivity |
| QVQLVESGGGLVQAGGSLRLSCAASGSILHLYAMGWYRQAPGKERELVARINSGGTTNYADSVKGRFTISRDNAKNTVYLQMNSLKPEDTAVYYCAARFTPYITSDDGHYDYWGQGTQVTVSS | low polyreactivity |
| QVQLVESGGGLVQAGGSLRLSCAASGSILHPNGMGWYRQAPGKERELVAAITINGDSTYYADSVKGRFTISRDNAKNTVYLQMNSLKPEDTAVYYCAVDGWPTGWYYYWGQGTQVTVSS | low polyreactivity |
| QVQLVESGGGLVQAGGSLRLSCAASGSILHPNGMGWYRQAPGKERELVAAITINGDSTYYADSVKGRFTISRDNAKNTVYLQMNSLKPEDTAVYYFAVDGWPTGWYYYWGQGTQVTVSS | low polyreactivity |
| QVQLVESGGGLVQAGGSLRLSCAASGSILHPNGMGWYRQATGKERELVAAITINGDSTYYADSVKGRFTISRDNAKNTVYLQMNCLKPEDTAVYYCAVDGWPTGWYYYWGHGTQVTVSS | low polyreactivity |
| QVQLVESGGGLVQAGGSLRLSCAASGSILKGYTMGWYRQAPGKERELVAAITQTDNSTNYADSVKGRFTISRDNAKNTVYLQMNSLKPEDTAVYYCAASQLEFRRAFYYWGQGTQVTVSS | low polyreactivity |
| QVQLVESGGGLVQAGGSLRLSCAASGSILKPYAMGWYRQAPGKERELVARISSSGGRTYYADSVKGRFTISRDNAKNTFYFKMNSLKPEDTAVYYFAAAIVSYGRNDYWGQGTQVTVSS | high polyreactivity |
| QVQLVESGGGLVQAGGSLRLSCAASGSILKSNAMGWYRQAPGKERELVAAITYRDGSTYYADSVKGRFTISRDNAKNTVYLQMNSLKAEDTAVYYCAAEPSWWNVFYPGYNYWGQGTQVTVSS | high polyreactivity |
| QVQLVESGGGLVQAGGSLRLSCAASGSILLINAMGWYRQAPGKERELVAAIRTGGSTYYADSVKGRFTISRDNAKNTVYLQMNSLKPEDTAVYYCAVRTGRRWWKFDYWGQGTQVTVSS | low polyreactivity |
| QVQLVESGGGLVQAGGSLRLSCAASGSILLIYAMGWYRQAPGKERELVAGITRGGSTNYADSVKGRFTISRDNAKNTVYLQMNSLKPEDTAVYYCASDGGPARYLVSDRDYWGQGTQVTVSS | low polyreactivity |
| QVQLVESGGGLVQAGGSLRLSCAASGSILLVYAMGWYRPAPGKERELVAAIRWSGGSTYYADSVKGRFTISRDNAKNTVYLQMNSLKPEDTAVYYCNAGESYSVKGGPYDSDYWGQGTQVTVSS | low polyreactivity |
| QVQLVESGGGLVQAGGSLRLSCAASGSILLYYAMGGSRPAPGKERQLVAAITCSGGSTYYADSVKGRFTISRDNAKNTDYLQMNSQKPEDTAVYYCNAVTDRAGSDYDSWGQGTQVTVSS | low polyreactivity |
